Assay results from patent CN106188281A (INST PASTEUR OF SHANGHAI CHINESE ACAD OF SCIENCES, dated 2016).

Key:
[1] = molecular target: T1, 诺如病毒GII.4病毒样颗粒 (GII.4 VP1 virus-like particle) (诺如病毒GII.4 (norovirus GII.4), UniProt P54635 3-539); assay: blocking ELISA (surrogate neutralisation), VLP to PGM; reference D11
T1 construct: also called GII.4VLP; 天然结构的GII.4病毒样颗粒
T1 chain: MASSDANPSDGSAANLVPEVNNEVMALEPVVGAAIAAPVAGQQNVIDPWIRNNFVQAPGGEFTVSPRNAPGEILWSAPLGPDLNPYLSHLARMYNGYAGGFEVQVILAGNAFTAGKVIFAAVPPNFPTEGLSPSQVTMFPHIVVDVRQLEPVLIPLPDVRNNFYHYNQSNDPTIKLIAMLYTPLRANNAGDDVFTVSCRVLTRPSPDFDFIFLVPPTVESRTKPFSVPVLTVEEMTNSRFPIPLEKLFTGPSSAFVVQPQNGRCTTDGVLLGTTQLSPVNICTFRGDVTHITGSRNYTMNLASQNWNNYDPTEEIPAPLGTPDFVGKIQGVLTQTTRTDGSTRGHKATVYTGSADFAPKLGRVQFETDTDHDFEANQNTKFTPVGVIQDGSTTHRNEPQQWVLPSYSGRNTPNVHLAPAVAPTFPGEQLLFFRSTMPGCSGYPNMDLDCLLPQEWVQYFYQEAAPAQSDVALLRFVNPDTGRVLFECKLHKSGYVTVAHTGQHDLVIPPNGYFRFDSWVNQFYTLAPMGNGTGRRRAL

[2] = molecular target: T2, 诺如病毒GI.1病毒样颗粒 (GI.1 VP1 virus-like particle) (诺如病毒GI.1 (norovirus GI.1), UniProt Q83884 3-530); assay: ELISA, 100 ng GI.1 VLP coated per well
T2 construct: VLP assembled from VP1
T2 sequence: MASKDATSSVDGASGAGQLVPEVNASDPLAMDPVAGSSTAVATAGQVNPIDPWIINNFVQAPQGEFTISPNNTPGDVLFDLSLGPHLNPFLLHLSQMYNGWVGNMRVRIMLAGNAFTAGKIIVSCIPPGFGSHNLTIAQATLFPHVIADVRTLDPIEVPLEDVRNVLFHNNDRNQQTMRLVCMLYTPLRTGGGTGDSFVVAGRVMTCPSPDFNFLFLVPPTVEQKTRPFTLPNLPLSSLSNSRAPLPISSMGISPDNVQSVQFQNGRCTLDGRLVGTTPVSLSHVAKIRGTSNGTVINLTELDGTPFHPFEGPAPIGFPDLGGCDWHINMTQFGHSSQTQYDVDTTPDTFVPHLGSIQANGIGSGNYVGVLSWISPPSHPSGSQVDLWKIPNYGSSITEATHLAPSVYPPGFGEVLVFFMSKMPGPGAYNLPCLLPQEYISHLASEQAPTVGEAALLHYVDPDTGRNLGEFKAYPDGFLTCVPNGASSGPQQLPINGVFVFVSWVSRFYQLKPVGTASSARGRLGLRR

[3] = molecular target: T1, 诺如病毒GII.4病毒样颗粒 (GII.4 VP1 virus-like …); assay: blocking ELISA (surrogate neutralisation), VLP to PGM; reference G9
[4] = molecular target: T1, 诺如病毒GII.4病毒样颗粒 (GII.4 VP1 virus-like …); assay: blocking ELISA (surrogate neutralisation): mAb titrated against 0.5 ug/ml GII.4 VLP, binding of VLP to coated PGM read

B1: 8E1单抗 (抗诺如病毒GII.4型鼠源单克隆抗体8E1) (antibody, V domains shown)
VH: EIQLQQSGPELMKPGASVKISCKASGYSFTDYYMHWVKQSHGKSLEWIGYIDPFNGDTGYNQKFKVRATLTVDESSTTAYMHLSSLTSDDSAVYYCARDDWGSPFSYWGQGTLVTVSA
VL: DIQMTQSPSSLSASLGESVSLTCRASHDIGSNLDWLQQEPDGTIKRLIYATSTLDSGVPKRFSGSRSGSDYSLTISSLESEDFVEYYCLQYASSPRTFGGGTKLEIKR
notes: Mouse IgG1, kappa; also called m8E1
fold of neutralising (blocking) activity against D11 [1]: > 2 fold | binding result [2]: no binding (tested: 5ug/ml) | fold of neutralising (blocking) activity against G9 [3]: ~16 fold | EC50 [4]: 0.0436 µg/mL
